{
  "source": "patent US20180244756A1",
  "about": "(US Dept. of Health and Human Services, published 2018)",
  "binders": {"B1": {"name": "FIB_H1 NHP antibody (antibody, V domains shown)", "VH": "EVQLVQSGAEVKKPGASVKVSCKASGHIFTSYVINWLQEAPGQGFEWMGGIHPGNGGRDYAQKFQGRVTITADMSTSTVYMELRSLRSEDMAVYYCAASSGSYGVSSLDVWGRGVLVTVSS", "VL": "QSALTQPPSLSASPGASARLPCTLSSDLSVGSKNMYWYQQKPGSAPRLFLYYYSDSDKQLGPGVPNRVSGSKETSSNTAFLLISGLQPEDEADYYCQVYDSSANWVFGGGTRLTVL"}, "B2": {"name": "A10 human antibody (antibody, V domains shown)", "VH": "QVQLVQSGAEVKKPGSSVKVSCKASGGTFSTYALSWVRQAPGQGLEWMGGIIPIFGTANYAQKFQGRVTITADESTSTAYMELNSLRSEDTAVYYCARGSRSSSSAEYFQHWGQGTLVTVSS", "VL": "QSALTQPRSVSGSPGQSVTISCTGTSSDVGGYNYVSWYQQHPGKAPKLMIYDVSKRPSGVPDRFSGSKSGNTASLTISGLQAEDEADYYCCSYAGSYTLEVVFGGGTKLTVL"}, "B3": {"name": "G2 antibody (antibody, V domains shown)", "VH": "QVQLQQSGGELVKPGASVKLSCKTSGFTFSSSYISWLKQKPGQSLEWIAWIYAGTGGTEYNQKFTGKAQVTVDTSSSTAYMQFSSLTTEDSAIYYCARGGSSFAMDYWGQGTSVTVSS", "VL": "not shown"}, "B4": {"name": "A2 human antibody (antibody, V domains shown)", "VH": "QVQLVESGGGLVKPGGSLRLSCAASGFTFSDYYMSWIRQAPGKGLEWVSYISSSGSTIYYADSVKGRFTISRDNAKNSLYLQMNSLRAEDTAVYYCARVGLGSGWYDWFDPWGQGTLVTVSS", "VL": "QSALTQPPSVSGAPGQRVTISCTGSSSNIGASYDVHWYQHLPGTAPKLLIYGNTNRPSGVPDRFSGSKSGTSASLAITGLQAEDEADYYCQSYDSSLSGVVFSGGTKLTVL"}, "B5": {"name": "MERS-CoV S protein receptor binding domain (RBD), England1 strain, soluble (other)", "chain": "EAKPSGSVVEQAEGVECDFSPLLSGTPPQVYNFKRLVFTNCNYNLTKLLSLFSVNDFTCSQISPAAIASNCYSSLILDYFSYPLSMKSDLSVSSAGPISQFNYKQSFSNPTCLILATVPHNLTTITKPLKYSYINKCSRFLSDDRTEVPQLVNANQYSPCVSIVPSTVWEDGDYYRKQLSPLEGGGWLVASGSTVAMTEQLQMGFGITVQYGTDTNSVCPKLEFANDTKIASQLGNCVEY"}, "B6": {"name": "FIB_B2 NHP antibody (antibody, V domains shown)", "VH": "QVQLQESGPGLVKPSETLSLTCAVSGGSISSNYWYWIRQSPVKGLEWIGYIYGGSGGTEYNPSLKSRVTISTDTSKNQFFLKLSSVTAADTAVYYCARSFYSWNGESWGQGVVVTVSS", "VL": "DIQMSQTPSSLSASVGDRVTITCRASQGINDYLNWYQQKPGKAPKLLIYYGNSLASGVPSRFSGSGSGTDFSLTISSLQPEDFATYYCQQGDSFPLTFGGGTKVDIK"}, "B7": {"name": "F11 antibody (antibody, V domains shown)", "VH": "EVKLEESGGGLVKPGGSLKLSCAASGFTFSRYAMSWVRQTPEKRLEWVATINNGGSYSYYPDSVKGRLTISRDNAKNTLYLQMSSLRSEDTALYYCARHYDYDGYYYTMDFWGQGTSVTVSS", "VL": "DVLMTQIPLSLPVSLGDQASISCRSSQSIVHSNGNTYLEWYLQKPGQSPKPLIYKVSNRISGVPDRFSGSGSGTDFTLKISRVEAEDLGVYYCFQGSHVPYTFGGGTNLEIKR"}, "B8": {"name": "G4 antibody (antibody, V domains shown)", "VH": "QVQLQQSGPELVRPGVSVKISCKGSGYTFTDYAIHWVKQSHAKSLEWIGVFSTYYGNTNYNQKFKGRATMTVDKSSSTAYMELARLTSEDSAIYYCARKSYYVDYVDAMDYWGQGTSVTVSS", "VL": "not shown"}},
  "key": {"[1]": {"biological_target": "B5", "experiment": "ELISA on RBD coated plates"}, "[2]": {"biological_target": "B5", "experiment": "ELISA specificity (FIG. 22), told only by this label"}, "[3]": {"biological_target": "T1, MERS-CoV S1 protein, England1 strain, soluble (MERS-CoV, England1 strain, UniProt K9N5Q8 19-752)", "T1 sequence": "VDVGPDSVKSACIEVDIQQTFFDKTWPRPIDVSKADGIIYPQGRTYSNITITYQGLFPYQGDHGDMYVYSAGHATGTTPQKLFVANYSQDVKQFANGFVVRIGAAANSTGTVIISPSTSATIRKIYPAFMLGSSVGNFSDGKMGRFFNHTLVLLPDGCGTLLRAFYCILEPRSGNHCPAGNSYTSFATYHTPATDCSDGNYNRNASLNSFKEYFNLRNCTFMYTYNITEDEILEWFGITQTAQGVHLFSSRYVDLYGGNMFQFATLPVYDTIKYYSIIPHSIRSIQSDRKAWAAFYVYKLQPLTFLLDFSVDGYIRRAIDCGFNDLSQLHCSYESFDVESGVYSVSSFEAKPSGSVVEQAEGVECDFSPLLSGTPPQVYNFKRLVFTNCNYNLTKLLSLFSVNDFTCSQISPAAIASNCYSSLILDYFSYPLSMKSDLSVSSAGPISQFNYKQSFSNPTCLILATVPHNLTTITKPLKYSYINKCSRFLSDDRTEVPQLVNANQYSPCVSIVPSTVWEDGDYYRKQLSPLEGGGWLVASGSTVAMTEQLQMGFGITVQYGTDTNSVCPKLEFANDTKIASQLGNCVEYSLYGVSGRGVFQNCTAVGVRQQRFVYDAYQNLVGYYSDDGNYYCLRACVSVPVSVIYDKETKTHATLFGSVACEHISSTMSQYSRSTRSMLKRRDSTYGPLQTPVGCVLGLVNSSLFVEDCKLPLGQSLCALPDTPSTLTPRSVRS", "experiment": "ELISA; x axis 'Protein concentration (µg/ml)'"}, "[4]": {"biological_target": "B5", "experiment": "ELISA, hybridoma supernatant"}, "[5]": {"biological_target": "T1, MERS-CoV S1 protein, England1 strain, …"}, "[6]": {"biological_target": "T2, MERS-CoV Spike (S) glycoprotein, England1 strain, full length (MERS-CoV, England1 strain, UniProt K9N5Q8 19-1353)", "T2 sequence": "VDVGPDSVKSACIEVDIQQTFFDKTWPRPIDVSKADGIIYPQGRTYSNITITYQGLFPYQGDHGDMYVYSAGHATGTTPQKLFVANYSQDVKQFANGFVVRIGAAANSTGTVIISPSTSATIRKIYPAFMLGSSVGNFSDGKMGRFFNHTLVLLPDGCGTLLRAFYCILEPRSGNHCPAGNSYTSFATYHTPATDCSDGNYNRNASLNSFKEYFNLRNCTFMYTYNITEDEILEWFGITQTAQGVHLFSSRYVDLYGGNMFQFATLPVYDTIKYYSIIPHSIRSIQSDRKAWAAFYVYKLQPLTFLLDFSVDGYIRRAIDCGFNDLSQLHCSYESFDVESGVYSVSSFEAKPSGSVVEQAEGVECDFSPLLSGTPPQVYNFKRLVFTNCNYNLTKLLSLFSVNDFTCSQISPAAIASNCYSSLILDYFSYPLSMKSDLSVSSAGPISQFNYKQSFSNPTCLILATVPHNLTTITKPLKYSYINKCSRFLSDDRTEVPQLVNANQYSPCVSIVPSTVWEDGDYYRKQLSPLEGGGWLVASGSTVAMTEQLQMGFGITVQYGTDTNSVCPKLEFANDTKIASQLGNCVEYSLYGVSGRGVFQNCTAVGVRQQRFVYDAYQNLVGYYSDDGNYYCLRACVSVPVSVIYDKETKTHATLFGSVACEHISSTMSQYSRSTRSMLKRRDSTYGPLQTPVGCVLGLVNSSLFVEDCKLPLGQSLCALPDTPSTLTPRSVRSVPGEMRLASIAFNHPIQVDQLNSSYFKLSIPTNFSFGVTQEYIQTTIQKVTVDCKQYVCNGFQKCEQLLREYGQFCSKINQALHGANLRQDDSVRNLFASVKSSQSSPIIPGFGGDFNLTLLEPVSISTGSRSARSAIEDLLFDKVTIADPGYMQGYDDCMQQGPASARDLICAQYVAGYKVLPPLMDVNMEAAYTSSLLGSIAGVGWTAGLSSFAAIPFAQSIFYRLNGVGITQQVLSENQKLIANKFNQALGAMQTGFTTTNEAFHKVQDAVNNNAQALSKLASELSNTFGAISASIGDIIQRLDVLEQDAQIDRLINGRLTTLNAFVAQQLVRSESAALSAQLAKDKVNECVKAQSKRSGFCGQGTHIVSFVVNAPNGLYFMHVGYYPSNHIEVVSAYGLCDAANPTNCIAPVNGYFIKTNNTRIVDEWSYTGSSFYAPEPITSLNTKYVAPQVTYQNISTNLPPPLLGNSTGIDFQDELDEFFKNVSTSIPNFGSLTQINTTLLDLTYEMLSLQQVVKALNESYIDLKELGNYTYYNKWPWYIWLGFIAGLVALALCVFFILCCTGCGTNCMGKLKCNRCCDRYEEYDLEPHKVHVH", "experiment": "cell-based or functional assay"}, "D12 antibody": {"biological_target": "D12 antibody", "sequence (VH, as listed by the source, chain 1 of 2)": "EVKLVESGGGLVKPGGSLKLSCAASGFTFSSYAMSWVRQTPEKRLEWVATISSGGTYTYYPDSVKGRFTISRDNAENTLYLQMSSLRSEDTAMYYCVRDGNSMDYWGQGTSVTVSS", "sequence (VL, as listed by the source, chain 2 of 2)": "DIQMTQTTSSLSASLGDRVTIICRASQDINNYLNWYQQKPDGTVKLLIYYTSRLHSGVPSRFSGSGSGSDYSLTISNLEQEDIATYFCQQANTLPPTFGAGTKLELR", "experiment": "cell-based or functional assay"}, "[7]": {"biological_target": "T1, MERS-CoV S1 protein, England1 strain, …", "experiment": "ELISA on RBD, S1 or S2 coated plates"}, "[8]": {"biological_target": "T1, MERS-CoV S1 protein, England1 strain, …", "experiment": "ELISA, hybridoma supernatant"}, "[9]": {"biological_target": "B5"}, "[10]": {"biological_target": "B5", "experiment": "ELISA on RBD, mAb titrated 0.0032-10 µg/ml"}, "[11]": {"biological_target": "B5", "experiment": "ELISA; x axis 'Protein concentration (µg/ml)'"}, "[12]": {"biological_target": "T2, MERS-CoV Spike (S) glycoprotein, …", "experiment": "cell-based or functional assay", "remark": "listed apart in the source"}},
  "data": [
    {"binder": "B1", "values": [
      {"measurement": "binding result", "setting": "[1]", "value": "no binding"}
    ]},
    {"binder": "B2", "values": [
      {"measurement": "binding result", "setting": "[2]", "value": "no binding"}
    ]},
    {"binder": "B3", "values": [
      {"measurement": "EC50 (read off the curve)", "setting": "[3]", "value": "~0.09", "unit": "µg/mL"},
      {"measurement": "ELISA (unit not given)", "setting": "[4]", "value": 0.04},
      {"measurement": "binding result", "setting": "[4]", "value": "no binding (tested: not given (supernatant))"},
      {"measurement": "Kd", "setting": "[5]", "value": 1.69, "unit": "nM"},
      {"measurement": "koff", "setting": "[5]", "value": 0.000188, "unit": "s⁻¹"},
      {"measurement": "kon", "setting": "[5]", "value": 111000, "unit": "M⁻¹ s⁻¹"},
      {"measurement": "IC50", "setting": "[6]", "value": 0.013, "unit": "µg/mL"},
      {"measurement": "IC80", "setting": "[6]", "value": 0.35, "unit": "µg/mL"}
    ]},
    {"binder": "B4", "values": [
      {"measurement": "binding result", "setting": "[2]", "value": "no binding"}
    ]},
    {"binder": "B5", "values": [
      {"measurement": "IC50 (read off the curve)", "setting": "D12 antibody", "value": "~2", "unit": "µg/mL"}
    ]},
    {"binder": "B6", "values": [
      {"measurement": "binding result", "setting": "[1]", "value": "no binding"},
      {"measurement": "binding result", "setting": "[7]", "value": "binds"}
    ]},
    {"binder": "B7", "values": [
      {"measurement": "ELISA (unit not given)", "setting": "[8]", "value": 2.67},
      {"measurement": "Kd", "setting": "[5]", "value": 3.49, "unit": "nM"},
      {"measurement": "koff", "setting": "[5]", "value": 0.000391, "unit": "s⁻¹"},
      {"measurement": "kon", "setting": "[5]", "value": 112000, "unit": "M⁻¹ s⁻¹"},
      {"measurement": "Kd", "setting": "[9]", "value": 114, "unit": "nM"},
      {"measurement": "koff", "setting": "[9]", "value": 0.0079, "unit": "s⁻¹"},
      {"measurement": "kon", "setting": "[9]", "value": 69100, "unit": "M⁻¹ s⁻¹"},
      {"measurement": "EC50 (read off the curve)", "setting": "[10]", "value": "~0.05", "unit": "µg/mL"},
      {"measurement": "IC50", "setting": "[6]", "value": 0.008, "unit": "µg/mL"},
      {"measurement": "IC80", "setting": "[6]", "value": 0.052, "unit": "µg/mL"}
    ]},
    {"binder": "B8", "values": [
      {"measurement": "binding result", "setting": "[3]", "value": "no binding (tested: 10 µg/ml)"},
      {"measurement": "binding result", "setting": "[11]", "value": "no binding (tested: 10 µg/ml)"},
      {"measurement": "ELISA (unit not given)", "setting": "[8]", "value": 0.06},
      {"measurement": "ELISA (unit not given)", "setting": "[4]", "value": 0.05},
      {"measurement": "pseudotyped MERS-CoV (England1) virus neutralization potency", "setting": "[12]", "value": "~10", "unit": "fold lower"},
      {"measurement": "IC50", "setting": "[6]", "value": 0.133, "unit": "µg/mL"},
      {"measurement": "IC80", "setting": "[6]", "value": 0.806, "unit": "µg/mL"}
    ]}
  ]
}
